Experimental data taken from doi:10.1101/2022.10.19.512861.

Molecular target: MreB from Geobacillus stearothermophilus (MreB^Gs), wild type, His6-tagged (Geobacillus stearothermophilus ATCC 7953)
Assay: negative stain electron microscopy of polymerization

- concentration of MreB above which polymers were observed: 0.55 µM
Substance: MreB from Geobacillus stearothermophilus (MreB^Gs), wild type, His6-tagged (natural protein)
